Test results reported in patent US20120034671A1 (RESEARCH FOUNDATION OF THE CITY UNIVERSITY OF NEW YORK, published 2012).

Target: the molecule itself
Test: self-association (homodimerization), observed with NMR (FIG. 3A-3C)

B1: HP-7 polypeptide (SEQ ID NO: 7) (peptide)
chain: GEIWKQHEDALQKFEEALNQFEDLKQLGGSGCGSGGEIWKQHEDALQKFEEALNQFEDLKQL
notes: also called free HP-7
- binding result: binds
